In patent US20250222125A1, “Anti-FGFR2b Antibodies, Conjugates and Methods of Use” (BeiGene, Ltd., priority 2024, published 2025) one finds Emax (OD450) and Emax (MFI) data, which are given here for one substance.

Assay [1] concerns the target human FGFR2b protein (recombinant, coated on ELISA plates) (human) (UniProt P21802). In words: ELISA, plate-coated human FGFR2b.
The target of assay [2] is human FGFR2c on cells (human) (UniProt P21802). In words: flow cytometry, human FGFR2c OE cells. (In general: In flow cytometry, cells or beads pass a laser one at a time.)
Chain of human FGFR2c on cells (human) (P21802 22-821): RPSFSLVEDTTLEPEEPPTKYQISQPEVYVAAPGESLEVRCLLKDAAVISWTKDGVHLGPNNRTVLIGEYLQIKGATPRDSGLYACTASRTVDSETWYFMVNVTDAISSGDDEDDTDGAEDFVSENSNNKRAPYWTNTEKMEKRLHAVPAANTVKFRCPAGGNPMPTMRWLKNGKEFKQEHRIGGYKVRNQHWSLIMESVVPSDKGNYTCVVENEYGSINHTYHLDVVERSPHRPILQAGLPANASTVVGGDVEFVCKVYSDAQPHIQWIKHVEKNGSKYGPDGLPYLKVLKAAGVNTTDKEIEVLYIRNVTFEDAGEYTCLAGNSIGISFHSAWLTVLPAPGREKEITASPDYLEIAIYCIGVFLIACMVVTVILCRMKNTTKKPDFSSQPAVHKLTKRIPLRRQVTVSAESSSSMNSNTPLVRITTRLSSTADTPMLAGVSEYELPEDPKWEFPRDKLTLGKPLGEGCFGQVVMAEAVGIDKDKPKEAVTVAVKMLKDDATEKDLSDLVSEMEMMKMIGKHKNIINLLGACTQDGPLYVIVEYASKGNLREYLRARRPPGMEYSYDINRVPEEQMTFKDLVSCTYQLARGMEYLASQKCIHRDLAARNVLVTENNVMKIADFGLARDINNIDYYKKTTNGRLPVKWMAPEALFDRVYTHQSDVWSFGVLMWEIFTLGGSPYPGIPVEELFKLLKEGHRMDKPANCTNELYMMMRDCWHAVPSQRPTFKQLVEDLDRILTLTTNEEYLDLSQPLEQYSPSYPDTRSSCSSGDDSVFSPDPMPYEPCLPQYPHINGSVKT

As to Isotype IgG control CB-6 (antibody), the Emax (OD450) in assay [1] was 0.08 OD450. The same substance yielded an Emax (MFI) in assay [2] of 27 MFI.
